In series [1] the target is T1, Peptide-5 (not fully specified).
T1 chain: CDRVYIHPFHLK

In series [2] the target is T2, Peptide-6a.
T2 chain: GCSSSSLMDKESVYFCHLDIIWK

For series [3], the target named is Peptide-4.
Series [4] addresses Peptide-1.
Series [5] has as its target Peptide-2.
The target in series [6] is Peptide-7.

B1: D1 (protein)
chain: YPYDVPDYAYPYDVPDYAYPYDVPDYAGSYDDGICKSSDCIKSAARLIQNMDATTEPCTDFFKYACGGWLKRNVIPETSSRYGNFDILRDELEVVLKDVLQEPKTEDIVAVQKAKALYRSCINESAIDSRGGEPLLKLLPDIYGWPVATENWEQKYGASWTAEKAIAQLNSKYGKKVLINLFVGTDDKNSVNHVIHIDQPRLGLPSRDYYECTGIYKEACTAYVDFMISVARLIRQEERLPIDENQLALEMNKVMELEKEIANATSKPEDRNDPMLLYNKMTLAQIQNNFSLEINGKPFSWLNFTNEIMSTVNISITNEEDVVVYAPEYLTKLKPILTKYSARDLQNLMSWRFIMDLVSSLSRTYKESRNAFRKALYVTTSETATWRRCANYVNGNMMNAVGRLYVEAAFAGESKHVVEDLIAQIREVFIQTLDDLTWMDAETKKRAEEKALAIKERIGYPDDIVSNDNKLNNEYLELNYKEDEYFENIIQNLKFSQSKQLKKLREKVDKDEWISGAAVVNAFYSSGRNQIVFPAGILQPPFFSAQQSNSLNYGGIGMVIGHEITHGFFDNGRNPNKDDDLVDWWTQQSASNFKEQSQCMVYQYGNFSWDLAGGQHLNGINTLGENIADNGGLGQAYRAYQNYIKKNGEEKLLPGLDLNHKQLFFLNFAQVWCGTYRPEYAVNSIKTDVHSPKNFRIIGTLQNSAEFSEAFHCRKNSYMNPEKKCRVW
As to B1, the activity relative to G399V/G714K (B1) amounted to 0.08 fold in series [1]; 0.12 fold in series [2]; 0.95 fold in series [3]; 1.11 fold in series [4]; 1.24 fold in series [5]; 0.61 fold in series [6].

B2: D5 (protein)
chain: YPYDVPDYAYPYDVPDYAYPYDVPDYAGSYDDGICKSSDCIKSAARLIQNMDATTEPCTDFFKYACGGWLKRNVIPETSSRYGNFDILRDELEVVLKDVLQEPKTEDIVAVQKAKALYRSCINESAIDSRGGEPLLKLLPDIYGWPVATENWEQKYGASWTAEKAIAQLNSKYGKKVLINLFVGTDDKNSVNHVIHIDQPRLGLPSRDYYECTGIYKEACTAYVDFMISVARLIRQEERLPIDENQLALEMNKVMELEKEIANATSKPEDRNDPMLLYNKMTLAQIQNNFSLEINGKPFSWLNFTNEIMSTVNISITNEEDVVVYAPEYLTKLKPILTKYSARDLQNLMSWRFIMGLVSSLSRTYKESRNAFRKALYVTTSETATWRRCANYVNGNMMNAVGRLYVEAAFAGESKHVVEDLIAQIREVFIQTLDDLTWMDAETKKRAEEKALAIKERIGYPDDIVSNDNKLNNEYLELNYKEDEYFENIIQNLKFSQSKQLKKLREKVDKDEWISGAAVVNAFYSSGRNQIVFPAGILQPPFFSAQQSNSLNYGGIGMVIGHEITHGFFDNGRNPNKDDDLVDWWTQQSASNFKEQSQCMVYQYGNFSWDLAGGQHLNGINTLQENIADNGGLGQAYRAYQNYIKKNGEEKLLPGLDLNHKQLFFLNFAQVWCGTYRPEYAVNSIKTDVHSPKNFRIIGTLQNSAEFSEAFHCRKNSYMNPEKKCRVW
On to B2, for which the activity relative to G399V/G714K (B1) in series [1] is 0.08 fold; in series [2], 0.35 fold; in series [3] it was 0.9 fold; in series [4] it was 2.94 fold; in series [5] it was 3.37 fold; in series [6], 0.9 fold.

B3: D4 (protein)
chain: YPYDVPDYAYPYDVPDYAYPYDVPDYAGSYDDGICKSSDCIKSAARLIQNMDATTEPCTDFFKYACGGWLKRNVIPETSSRYGNFDILRDELEVVLKDVLQEPKTEDIVAVQKAKALYRSCINESAIDSRGGEPLLKLLPDIYGWPVATENWEQKYGASWTAEKAIAQLNSKYGKKVLINLFVGTDDKNSVNHVIHIDQPRLGLPSRDYYECTGIYKEACTAYVDFMISVARLIRQEERLPIDENQLALEMNKVMELEKEIANATSKPEDRNDPMLLYNKMTLAQIQNNFSLEINGKPFSWLNFTNEIMSTVNISITNEEDVVVYAPEYLTKLKPILTKYSARDLQNLMSWRFIMGLVSSLSRTYKESRNAFRKALYVTTSETATWRRCANYVNGNMMNAVGRLYVEAAFAGESKHVVEDLIAQIREVFIQTLDDLTWMDAETKKRAEEKALAIKERIGYPDDIVSNDNKLNNEYLELNYKEDEYFENIIQNLKFSQSKQLKKLREKVDKDEWISGAAVVNAFYSSGRNQIVFPAGILQPPFFSAQQSNSLNYGGIGMVIGHEITHGFFDNGRNPNKDDDLVDWWTQQSASNFKEQSQCMVYQYGNFSWDLAGGQHLNGINTLGENIADNGGLGQAYRAYQNYIKKNGEEKLLPGLDLNHKQLFFLNFAQVWCGTYRPEYAVNSIKTDVHSPKNFRIIGTLQNSAEFSEAFHCRKNSYMNPEKKCRVW
For B3, the activity relative to G399V/G714K (B1) in series [1] was 0.08 fold; in series [2], 0.28 fold; in series [3], 0.91 fold; in series [4] it was 2.43 fold; in series [5], 2.71 fold; in series [6], 0.51 fold.

B4: D2 (protein)
chain: YPYDVPDYAYPYDVPDYAYPYDVPDYAGSYDDGICKSSDCIKSAARLIQNMDATTEPCTDFFKYACGGWLKRNVIPETSSRYGNFDILRDELEVVLKDVLQEPKTEDIVAVQKAKALYRSCINESAIDSRGGEPLLKLLPDIYGWPVATENWEQKYGASWTAEKAIAQLNSKYGKKVLINLFVGTDDKNSVNHVIHIDQPRLGLPSRDYYECTGIYKEACTAYVDFMISVARLIRQEERLPIDENQLALEMNKVMELEKEIANATAKPEDRNDPMLLYNKMTLAQIQNNFSLEINGKPFSWLNFTNEIMSTVNISITNEEDVVVYAPEYLTKLKPILTKYSARDLQNLMSWRFIMGLVSSLSRTYKESRNAFRKALYVTTSETATWRRCANYVNGNMMNAVGRLYVEAAFAGESKHVVEDLIAQIREVFIQTLDDLTWMDAETKKRAEEKALAIKERIGYPDDIVSNDNKLNNEYLELNYKEDEYFENIIQNLKFSQSKQLKKLREKVDKDEWISGAAVVNAFYSSGRNQIVFPAGILQPPFFSAQQSNSLNYGGIGMVIGHEITHGFFDNGRNPNKDDDLVDWWTQQSASNFKEQSQCMVYQYGNFSWDLAGGQHLNGINTLGENIADNGGLGQAYRAYQNYIKKNGEEKLLPGLDLNHKQLFFLNFAQVWCGTYRPEYAVNSIKTDVHSPKNFRIIGTLQNSAEFSEAFHCRKNSYMNPEKKCRVW
In the case of B4, the activity relative to G399V/G714K (B1) in series [1] came to 0.08 fold; in series [2] it was 0.08 fold; in series [3] it was 0.9 fold; in series [4] it was 0.83 fold; in series [5] it was 1.06 fold; in series [6], 0.4 fold.

B5: D6 (protein)
chain: YPYDVPDYAYPYDVPDYAYPYDVPDYAGSYDDGICKSSDCIKSAARLIQNMDATTEPCTDFFKYACGGWLKRNVIPETSSRYGNFDILRDELEVVLKDVLQEPKTEDIVAVQKAKALYRSCINESAIDSRGGEPLLKLLPDIYGWPVATENWEQKYGASWTAEKAIAQLNSKYGKKVLINLFVGTDDKNSVNHVIHIDQPRLGLPRRDYYECTGIYKEACTAYVDLMISVARLIRQEERLPIDENQLALEMNKVMELEKEIANATSKPEDRNDPMLLYNKMTLAQIQNNFSLEINGKPFSWLNFTNEIMSTVNISITNEEDVVVYAPEYLTKLKPILTKYSARDLQNLMSWRFIMDLVSSLSRTYKESRNAFRKALYVTTSETATWRRCANYVNGNMMNAVGRLYVEAAFAGESKHVVEDLIAQIREVFIQTLDDLTWMDAETKKRAEEKALAIKERIGYPDDIVSNDNKLNNEYLELNYKEDEYFENIIQNLKFSQSKQLKKLREKVDKDEWISGAAVVNAFYSSGRNQIVFPAGILQPPFFSAQQSNSLNYGGIGMVIGHEITHGFMDNVRNPNKDDDLVDWWTQQSASNFKEQSQCMVYQYGNFSWDLAGGQHLNGINTLGENIADNGGLGQAYRAYQNYIKKNGEEKLLPGLDLNHKQLFFLNFAQVWCGTYRPEYAVNSIKTDVHSPKNFRIIGTLQNSAEFSEAFHCRKNSYMNPEKKCRVW
Regarding B5, the activity relative to G399V/G714K (B1) was 0.08 fold in series [1]; 0.35 fold in series [2]; 0.89 fold in series [3]; 2.24 fold in series [4]; 2.37 fold in series [5]; 0.68 fold in series [6].

B6: D3 (protein)
chain: YPYDVPDYAYPYDVPDYAYPYDVPDYAGSYDDGICKSSDCIKSAARLIQNMDATTEPCTDFFKYACGGWLKRNVIPETSSRYGNFDILRDELEVVLKDVLQEPKTEDIVAVQKAKALYRSCINESAIDSRGGEPLLKLLPDIYGWPVATENWEQKYGASWTAEKAIAQLNSKYGKKVLINLFVGTDDKNSVNHVIHIDQPRLGLPSRDYYECTGIYKEACTAYVDFMISVARLIRQEERLPIDENQLALEMNKVMELEKEIANATAKPEDRNDPMLLYNKMTLAQIQNNFSLEINGKPFSWLNFTNEIMSTVNISITNEEDVVVYAPEYLTKLKPILTKYSARDLQNLMSWRFIMDLVSSLSRTYKESRNAFRKALYVTTSETATWRRCANYVNGNMMNAVGRLYVEAAFAGESKHVVEDLIAQIREVFIQTLDDLTWMDAETKKRAEEKALAIKERIGYPDDIVSNDNKLNNEYLELNYKEDEYFENIIQNLKFSQSKQLKKLREKVDKDEWISGAAVVNAFYSSGRNQIVFPAGILQPPFFSAQQSNSLNYGGIGMVIGHEITHGFFDNGRNPNKDDDLVDWWTQQSASNFKEQSQCMVYQYGNFSWDLAGGQHLNGINTLQENIADNGGLGQAYRAYQNYIKKNGEEKLLPGLDLNHKQLFFLNFAQVWCGTYRPEYAVNSIKTDVHSPKNFRIIGTLQNSAEFSEAFHCRKNSYMNPEKKCRVW
Consider B6, for which the activity relative to G399V/G714K (B1) was determined as 0.1 fold in series [1]; 0.47 fold in series [2]; 1.04 fold in series [3]; 3.11 fold in series [4]; 3.42 fold in series [5]; 0.95 fold in series [6].

(Values after patent publication US20120237496.)
